In article PMC6532394:
Read-outs that look alike come from different tables or passages of the source.

Tests used:
Test in all cases: fluorescence anisotropy
MeCP2 (full-length) [1] = biological target: T1, MeCP2 (full-length) (human, UniProt P51608 1-486)
MeCP2 (full-length) [2] = biological target: T1, MeCP2 (full-length); remark: listed apart in the source
MeCP2 (full-length) [3] = biological target: T1, MeCP2 (full-length); remark: listed apart in the source
MeCP2 (full-length) [4] = biological target: T1, MeCP2 (full-length); remark: listed apart in the source
MeCP2 (full-length) [5] = biological target: T1, MeCP2 (full-length); remark: listed apart in the source
MeCP2 (full-length) [6] = biological target: T1, MeCP2 (full-length); remark: listed apart in the source
MeCP2 (full-length) [7] = biological target: T1, MeCP2 (full-length); remark: listed apart in the source

T1 sequence (P51608 whole entry): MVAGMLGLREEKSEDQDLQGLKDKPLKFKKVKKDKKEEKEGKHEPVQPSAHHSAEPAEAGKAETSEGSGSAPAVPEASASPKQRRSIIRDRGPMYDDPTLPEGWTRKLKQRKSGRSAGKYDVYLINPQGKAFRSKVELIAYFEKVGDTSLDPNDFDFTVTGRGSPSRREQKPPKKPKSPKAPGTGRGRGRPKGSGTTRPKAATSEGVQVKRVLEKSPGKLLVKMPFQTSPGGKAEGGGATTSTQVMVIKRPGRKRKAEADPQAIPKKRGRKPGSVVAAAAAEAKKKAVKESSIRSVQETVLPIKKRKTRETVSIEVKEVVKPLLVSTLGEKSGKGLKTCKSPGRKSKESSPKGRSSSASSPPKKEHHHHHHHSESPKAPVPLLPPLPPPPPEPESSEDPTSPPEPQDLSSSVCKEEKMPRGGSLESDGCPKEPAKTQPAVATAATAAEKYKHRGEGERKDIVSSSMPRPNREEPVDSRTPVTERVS

Row | Binder | Kd (MeCP2 (full-length) [1]) | Kd (MeCP2 (full-length) [2]) | Kd (MeCP2 (full-length) [3]) | Kd (MeCP2 (full-length) [4]) | Kd (MeCP2 (full-length) [5]) | Kd (MeCP2 (full-length) [6]) | Kd (MeCP2 (full-length) [7])
1 | CpG 20 bp duplex (-/-) (dsDNA, none) DNA 1: TCTGGAACGGAATTCTTCTA DNA 2: TAGAAGAATTCCGTTCCAGA | 56.5 ± 1.8 nM | 6.3 ± 0.3 nM | 155 ± 3.7 nM |  |  |  | 
2 | mCpG 20 bp duplex (m/m) (dsDNA, 5mC at CpG C of both strands (strand 1 C8, strand 2 C12)) DNA 1: TCTGGAACGGAATTCTTCTA DNA 2: TAGAAGAATTCCGTTCCAGA |  |  |  | 80.3 ± 2.5 nM | 36.5 ± 1.4 nM | 28.3 ± 1.1 nM | 5.2 ± 0.4 nM
